Assays:
[1] = biological target: LAP-TGFβ1 on U937 cells (Homo sapiens) (UniProt P01137); test: flow cytometry dot plot against GARP, U937 cells, Alexa 647 antibody at 10 ug/ml
[2] = biological target: human-chicken LAP-TGFβ1 chimera #1.3 on HT1080 cells (human/chicken chimera) (UniProt P01137); test: flow cytometry, transduced HT1080 cells
[3] = biological target: human-chicken LAP-TGFβ1 chimera #2.1 on HT1080 cells (human/chicken chimera) (UniProt P01137); test: flow cytometry, transduced HT1080 cells
[4] = biological target: human-chicken LAP-TGFβ1 chimera #1.2 on HT1080 cells (human/chicken chimera) (UniProt P01137); test: flow cytometry, transduced HT1080 cells
[5] = biological target: human-chicken LAP-TGFβ1 chimera #7 on HT1080 cells (human/chicken chimera) (UniProt P01137); test: flow cytometry, transduced HT1080 cells
[6] = biological target: human-chicken LAP-TGFβ1 chimera #1 on HT1080 cells (human/chicken chimera); test: flow cytometry, transduced HT1080 cells
[7] = biological target: human-chicken LAP-TGFβ1 chimera #5 on HT1080 cells (human/chicken chimera); test: flow cytometry, transduced HT1080 cells
[8] = biological target: human-chicken LAP-TGFβ1 chimera #3 on HT1080 cells (human/chicken chimera) (UniProt P01137); test: flow cytometry, transduced HT1080 cells
[9] = biological target: chicken LAP-TGFβ1 on HT1080 cells (chicken) (UniProt P09531); test: flow cytometry, transduced HT1080 cells
[10] = biological target: human-chicken LAP-TGFβ1 chimera #6 on HT1080 cells (human/chicken chimera) (UniProt P01137); test: flow cytometry, transduced HT1080 cells
[11] = biological target: human-chicken LAP-TGFβ1 chimera #4 on HT1080 cells (human/chicken chimera) (UniProt P01137); test: flow cytometry, transduced HT1080 cells
[12] = biological target: human LAP-TGFβ1 overexpressed on cells (human) (UniProt P01137); test: flow cytometry, transduced HT1080 cells
[13] = biological target: human-chicken LAP-TGFβ1 chimera #2 on HT1080 cells (human/chicken chimera); test: flow cytometry, transduced HT1080 cells
[14] = biological target: human-chicken LAP-TGFβ1 chimera #2.2 on HT1080 cells (human/chicken chimera) (UniProt P01137); test: flow cytometry, transduced HT1080 cells
Sequence of human-chicken LAP-TGFβ1 chimera #2.2 on HT1080 cells (human/chicken chimera) (P01137 other isoform, or with tags, fused parts or gaps mutant): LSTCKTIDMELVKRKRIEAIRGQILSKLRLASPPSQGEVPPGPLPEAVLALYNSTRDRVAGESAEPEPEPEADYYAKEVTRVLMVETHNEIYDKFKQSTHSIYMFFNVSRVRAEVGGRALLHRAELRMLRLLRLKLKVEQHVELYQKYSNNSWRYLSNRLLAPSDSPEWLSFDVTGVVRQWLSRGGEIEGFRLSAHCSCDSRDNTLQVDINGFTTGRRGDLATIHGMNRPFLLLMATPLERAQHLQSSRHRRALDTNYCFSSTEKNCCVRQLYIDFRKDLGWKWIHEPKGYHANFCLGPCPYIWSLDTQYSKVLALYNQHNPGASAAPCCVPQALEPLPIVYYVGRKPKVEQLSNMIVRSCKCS

Sequence of LAP-TGFβ1 on U937 cells (Homo sapiens) (P01137 30-390 limits assumed): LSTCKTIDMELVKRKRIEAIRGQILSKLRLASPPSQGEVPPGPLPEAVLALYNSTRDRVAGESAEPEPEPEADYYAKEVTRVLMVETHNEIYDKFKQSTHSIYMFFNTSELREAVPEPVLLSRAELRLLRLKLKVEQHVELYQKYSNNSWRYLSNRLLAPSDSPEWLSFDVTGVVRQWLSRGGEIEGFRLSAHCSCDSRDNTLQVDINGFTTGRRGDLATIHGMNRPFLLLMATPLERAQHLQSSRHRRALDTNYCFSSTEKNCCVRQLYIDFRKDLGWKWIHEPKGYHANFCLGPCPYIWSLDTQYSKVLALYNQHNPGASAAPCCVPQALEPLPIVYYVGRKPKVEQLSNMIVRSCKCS
Sequence of human LAP-TGFβ1 overexpressed on cells (human) (P01137 30-390): as the sequence (P01137 30-390 limits assumed) above
Sequence of human-chicken LAP-TGFβ1 chimera #1.2 on HT1080 cells (human/chicken chimera) (P01137 other isoform, or with tags, fused parts or gaps mutant): as the sequence (P01137 30-390 limits assumed) above, with A31T, S32A, S35P, Q36A, G37S, V39T, G42R, E46D, A47D, L49R counted along it
Sequence of human-chicken LAP-TGFβ1 chimera #5 on HT1080 cells (human/chicken chimera) (chain, as listed by the source mutant limits assumed): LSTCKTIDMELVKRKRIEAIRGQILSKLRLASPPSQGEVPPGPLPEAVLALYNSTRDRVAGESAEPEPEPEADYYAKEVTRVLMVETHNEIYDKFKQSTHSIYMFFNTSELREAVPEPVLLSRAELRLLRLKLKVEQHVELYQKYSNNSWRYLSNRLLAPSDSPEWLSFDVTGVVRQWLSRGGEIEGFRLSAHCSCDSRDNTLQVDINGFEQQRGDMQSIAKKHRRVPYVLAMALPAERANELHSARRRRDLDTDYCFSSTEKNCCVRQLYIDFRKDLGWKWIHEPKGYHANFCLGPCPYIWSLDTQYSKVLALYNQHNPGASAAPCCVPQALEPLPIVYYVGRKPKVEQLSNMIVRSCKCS
Sequence of chicken LAP-TGFβ1 on HT1080 cells (chicken) (P09531 19-391): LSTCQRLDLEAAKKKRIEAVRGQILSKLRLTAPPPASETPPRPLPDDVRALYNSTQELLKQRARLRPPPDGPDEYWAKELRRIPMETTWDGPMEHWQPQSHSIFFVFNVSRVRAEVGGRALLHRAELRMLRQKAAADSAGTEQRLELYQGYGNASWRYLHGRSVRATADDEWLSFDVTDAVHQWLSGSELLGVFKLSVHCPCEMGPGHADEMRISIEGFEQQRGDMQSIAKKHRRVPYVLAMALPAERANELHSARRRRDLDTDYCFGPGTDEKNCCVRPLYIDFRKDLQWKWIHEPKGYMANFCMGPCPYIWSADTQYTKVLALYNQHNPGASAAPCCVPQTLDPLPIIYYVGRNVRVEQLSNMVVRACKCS
Sequence of human-chicken LAP-TGFβ1 chimera #1 on HT1080 cells (human/chicken chimera) (chain, as listed by the source mutant limits assumed): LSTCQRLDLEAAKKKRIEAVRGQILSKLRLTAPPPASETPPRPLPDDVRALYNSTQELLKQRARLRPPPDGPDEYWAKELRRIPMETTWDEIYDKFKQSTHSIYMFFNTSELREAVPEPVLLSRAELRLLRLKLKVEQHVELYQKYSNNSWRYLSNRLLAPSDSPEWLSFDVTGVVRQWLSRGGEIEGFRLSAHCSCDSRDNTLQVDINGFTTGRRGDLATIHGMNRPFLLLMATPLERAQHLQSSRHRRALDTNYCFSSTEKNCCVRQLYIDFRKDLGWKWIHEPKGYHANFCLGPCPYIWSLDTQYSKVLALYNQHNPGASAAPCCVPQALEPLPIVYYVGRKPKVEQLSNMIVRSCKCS
Sequence of human-chicken LAP-TGFβ1 chimera #6 on HT1080 cells (human/chicken chimera) (P01137 other isoform, or with tags, fused parts or gaps mutant): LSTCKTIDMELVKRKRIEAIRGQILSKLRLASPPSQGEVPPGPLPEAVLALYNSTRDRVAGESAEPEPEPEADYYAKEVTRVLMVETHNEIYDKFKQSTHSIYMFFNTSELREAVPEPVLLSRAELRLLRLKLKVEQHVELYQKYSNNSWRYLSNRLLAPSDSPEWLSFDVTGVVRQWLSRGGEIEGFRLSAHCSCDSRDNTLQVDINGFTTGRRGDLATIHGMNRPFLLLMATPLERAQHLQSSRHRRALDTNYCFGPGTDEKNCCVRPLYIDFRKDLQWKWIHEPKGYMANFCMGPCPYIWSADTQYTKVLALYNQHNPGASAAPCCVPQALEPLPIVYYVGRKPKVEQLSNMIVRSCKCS
Sequence of human-chicken LAP-TGFβ1 chimera #3 on HT1080 cells (human/chicken chimera) (P01137 other isoform, or with tags, fused parts or gaps mutant): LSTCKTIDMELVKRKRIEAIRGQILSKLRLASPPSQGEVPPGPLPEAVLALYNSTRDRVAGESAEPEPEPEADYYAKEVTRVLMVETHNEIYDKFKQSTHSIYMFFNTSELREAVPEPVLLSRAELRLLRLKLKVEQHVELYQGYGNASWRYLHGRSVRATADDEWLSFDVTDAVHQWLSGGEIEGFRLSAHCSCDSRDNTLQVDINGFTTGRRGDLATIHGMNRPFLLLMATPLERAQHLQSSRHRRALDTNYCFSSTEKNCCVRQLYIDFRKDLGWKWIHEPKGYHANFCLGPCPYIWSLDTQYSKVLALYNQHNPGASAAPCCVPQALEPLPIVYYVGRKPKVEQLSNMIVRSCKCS
Sequence of human-chicken LAP-TGFβ1 chimera #7 on HT1080 cells (human/chicken chimera) (P01137 other isoform, or with tags, fused parts or gaps mutant): as the sequence (P01137 30-390 limits assumed) above, with A331T, E333D, V338I, K344N, P345V, K346R, I354V, S357A counted along it
Sequence of human-chicken LAP-TGFβ1 chimera #1.3 on HT1080 cells (human/chicken chimera) (P01137 other isoform, or with tags, fused parts or gaps mutant): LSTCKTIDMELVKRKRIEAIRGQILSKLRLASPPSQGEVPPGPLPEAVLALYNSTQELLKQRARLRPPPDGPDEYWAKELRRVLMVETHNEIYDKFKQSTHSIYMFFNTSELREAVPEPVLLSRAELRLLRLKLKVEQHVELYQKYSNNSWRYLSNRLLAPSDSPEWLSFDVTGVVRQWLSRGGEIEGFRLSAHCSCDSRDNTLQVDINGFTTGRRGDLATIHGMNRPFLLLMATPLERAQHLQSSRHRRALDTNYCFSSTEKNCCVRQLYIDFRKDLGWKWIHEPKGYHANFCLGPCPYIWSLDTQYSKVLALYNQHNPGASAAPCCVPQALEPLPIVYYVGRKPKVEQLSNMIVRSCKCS
Sequence of human-chicken LAP-TGFβ1 chimera #2.1 on HT1080 cells (human/chicken chimera) (P01137 other isoform, or with tags, fused parts or gaps mutant): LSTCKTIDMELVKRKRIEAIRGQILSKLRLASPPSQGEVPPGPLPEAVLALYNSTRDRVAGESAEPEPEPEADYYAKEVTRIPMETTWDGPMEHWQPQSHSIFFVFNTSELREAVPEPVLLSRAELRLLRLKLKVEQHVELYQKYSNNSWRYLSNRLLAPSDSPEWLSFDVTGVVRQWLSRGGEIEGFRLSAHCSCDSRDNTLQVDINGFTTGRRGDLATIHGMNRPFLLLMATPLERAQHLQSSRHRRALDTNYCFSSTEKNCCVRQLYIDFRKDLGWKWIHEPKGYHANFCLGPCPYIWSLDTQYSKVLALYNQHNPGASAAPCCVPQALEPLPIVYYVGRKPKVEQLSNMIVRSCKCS
Sequence of human-chicken LAP-TGFβ1 chimera #4 on HT1080 cells (human/chicken chimera) (P01137 other isoform, or with tags, fused parts or gaps mutant): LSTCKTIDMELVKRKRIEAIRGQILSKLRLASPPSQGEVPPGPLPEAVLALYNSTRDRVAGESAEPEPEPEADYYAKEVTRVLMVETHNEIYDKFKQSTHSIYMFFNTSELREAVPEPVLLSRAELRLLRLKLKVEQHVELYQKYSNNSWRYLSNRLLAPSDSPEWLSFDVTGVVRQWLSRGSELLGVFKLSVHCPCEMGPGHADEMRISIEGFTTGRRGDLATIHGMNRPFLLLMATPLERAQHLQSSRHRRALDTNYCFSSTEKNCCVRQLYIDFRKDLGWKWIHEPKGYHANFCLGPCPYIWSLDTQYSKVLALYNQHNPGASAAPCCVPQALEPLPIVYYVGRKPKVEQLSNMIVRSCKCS

% of cells in Q1 (antibody axis positive, GARP negative) [1]	% of cells in Q2 (antibody axis positive, GARP positive) [1]	% GFP+/APC+ cells [2]	% GFP+/APC+ cells [3]	% GFP+/APC+ cells [4]	% GFP+/APC+ cells [5]	% GFP+/APC+ cells [6]	% GFP+/APC+ cells [7]	% GFP+/APC+ cells [8]	% GFP+/APC+ cells [9]	% GFP+/APC+ cells [10]	% GFP+/APC+ cells [11]	% GFP+/APC+ cells [12]	% GFP+/APC+ cells [13]	% GFP+/APC+ cells [14]	Substance
16.2%	0.37%														Isotype Control (antibody)
		65.2%	79.1%	78.3%	0.6%	7.5%	11.9%	46.3%	0.5%	76.7%	56.2%	68.9%	1.5%	47.2%	rabbit monoclonal antibody raised against a peptide from the mature cytokine domain (Abcam ab179695)

From patent US20220017612A1
